Source: article doi:10.1101/2022.06.09.495492

Target: α-actin, endogenous (T. vaginalis) (T. vaginalis (endogenous in TH17 trophozoites))
Test: co-sedimentation

TvFACPα (F-actin capping protein subunit α homolog), endogenous (natural protein)
percent co-sedimented with F-actin (F-actin fraction): 25%
